Test results: the supplement of paper PMC12667976
± gives the standard error.

B1: library; numbered along this chain (parent)
chain: MATDAALRRLLRLHRTEIAVAVDSAFPLLHALADHDVVPEDKFQETLHLKEKEGCPQAFHALLSWLLTQDSTAILDFWRVLFKDYNLERYGRLQPILDSFPKDVDLSQPRKGRKPPAVPKALVPPPRLPTKRKASEEARAAAPAALTPRGTASPGSQLKAKPPKKPESSAEQQRLPLGNGIQTMSASVQRAVAMSSGDVPGARGAVEGILIQQVFESGGSKKCIQVGGEFYTPSKFEDSGSGKNKARSSSGPKPLVRAKGAQGAAPGGGEARLGQQGSVPAPLALPSDPQLHQKNEDECAVCRDGGELICCDGCPRAFHLACLSPPLREIPSGTWRCSSCLQATVQEVQPRAEEPRPQEPPVETPLPPGLRSAGEEVRGPPGEPLAGMDTTLVYKHLPAPPSAAPLPGLDSSALHPLLCVGPEGQQNLAPGARCGVCGDGTDVLRCTHCAAAFHWRCHFPAGTSRPGTGLRCRSCSGDVTPAPVEGVLAPSPARLAPGPAKDDTASHEPALHRDDLESLLSEHTFDGILQWAIQSMARPAAPFPS

Variants of: B1
Test: AIRE transcriptional activation functional score (insulin promoter-GFP; nonsense median 0, synonymous median 1) (normalised score); higher = higher AIRE activity (more reporter activation)
Details: with insulin promoter-GFP reporter in HEK293
Procedure, shortened: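 The functional score compares variant enrichment between select and non-select populations after subtracting wild type. To obtain it, codon-optimized AIRE NNN-codon libraries spanning three regions were placed by Bxb1 recombinase into Flp-In T-REx HEK293 landing-pad cells with an insulin core promoter-GFP reporter. Cells with the top 10% GFP and unselected integrants were tile-sequenced after mCherry+, BFP− integrants had been sorted at day 7 and grown 7 more days. Only variants with 10 counts per million in non-select were kept, rescaled to nonsense median 0 and synonymous median 1, and averaged across biological replicates.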

Variant | AIRE transcriptional activation functional score
D198T | 1.51 ± 0.21
K164G | 1.83 ± 0.32
R473L | 1.29 ± 0.21
Q262I | 1.04 ± 0.24
F82V | 0.0231 ± 0.15
L341G | 1.11 ± 0.15
A261C | 1.11 ± 0.27
A6S | 0.223 ± 0.61
A6I | 0.395 ± 0.37
L406P | 0.97 ± 0.28
D515G | 0.421 ± 0.14
P154N | 0.642 ± 0.3
P154L | 1.36 ± 0.46
P380R | 0.936 ± 0.28
G263W | 1.29 ± 0.019
G263P | 0.887 ± 0.21
V37C | -0.563 ± 0.26
A144C | 1.04 ± 0.26
A144L | 1.17 ± 0.38
A144G | 1.31 ± 0.24
V487Q | 0.492 ± 0.13

Variant | AIRE transcriptional activation functional score
D76I | 0.22 ± 0.4
L81V | -0.437 ± 0.64
G333I | 0.774 ± 0.32
E354P | 0.835 ± 0.28
E354M | 1.47 ± 0.035
Y394W | 0.755 ± 0.1
F459H | 1 ± 0.043
F459C | 0.343 ± 0.067
L29N | 0.195 ± 0.28
L29G | -0.175 ± 0.35
Q225L | -0.23 ± 0.54
P280T | 1.04 ± 0.29
P280A | 0.981 ± 0.21
R471W | 1.12 ± 0.1
K222V | 0.137 ± 0.41
T463M | 1.51 ± 0.09
K235H | 0.221 ± 0.2
A510H | 0.605 ± 0.23
C302V | 0.651 ± 0.089
L273K | 0.434 ± 0.14
V256C | 0.771 ± 0.33

Variant | AIRE transcriptional activation functional score
V256E | 0.8 ± 0.15
D304L | 0.299 ± 0.18
G424C | 1.41 ± 0.072
R110V | 1.21 ± 0.39
R113E | 0.975 ± 0.22
R149G | 0.663 ± 0.62
R356G | 1.06 ± 0.19
R356V | 0.975 ± 0.12
L470M | 0.671 ± 0.069
Q358R | 1.17 ± 0.2
Q44L | 0.658 ± 0.61
P357D | 0.863 ± 0.065
P357K | 0.713 ± 0.13
R15G | -0.349 ± 0.32
R15S | -0.0525 ± 0.75
L488H | 0.298 ± 0.17
G204K | 0.976 ± 0.28
A134F | 1.29 ± 0.44
A134C | 1.35 ± 0.81
Q349R | 0.95 ± 0.28
Q349G | 1.14 ± 0.19

Variant | AIRE transcriptional activation functional score
D442S | 0.83 ± 0.2
D442P | 0.0269 ± 0.18
Q275D | 1.33 ± 0.19
Q275I | 1.12 ± 0.15
Q275C | 1.08 ± 0.075
S518Q | 1.77 ± 0.11
L327F | 1.21 ± 0.13
L327H | -0.118 ± 0.56
T447L | 1.2 ± 0.25
G227C | 0.85 ± 0.24
G227K | 0.245 ± 0.1
R9S | 1.39 ± 0.75
R9Y | 0.868 ± 1.2
R9L | 0.268 ± 0.39
G201D | 0.481 ± 0.047
V443P | 1.15 ± 0.18
V443A | 0.969 ± 0.35
V443F | 0.581 ± 0.22
V226S | 0.403 ± 0.54
V226R | 0.531 ± 0.26
